The values that follow come from article PMC12706091.

For this assay, the target named is recombinant Flag-DIC1B (rFlag-DIC1B). Description: pull-down; 2 μg Flag-DIC1B on anti-Flag magnetic beads, 2 μg each of Myc-ANXA7 and TIA1 added; NP40 lysis buffer with 0.5 M L-arginine, 4 °C; with or without 1 mM CaCl2; western blot. In general terms: A western blot detects proteins with antibodies after separation by electrophoresis.

B1: recombinant TIA1 (rTIA1) (natural protein)
chain: MEDEMPKTLYVGNLSRDVTEALILQLFSQIGPCKNCKMIMDTAGNDPYCFVEFHEHRHAAAALAAMNGRKIMGKEVKVNWATTPSSQKKDTSSSTVVSTQRSQDHFHVFVGDLSPEITTEDIKAAFAPFGRISDARVVKDMATGKSKGYGFVSFFNKWDAENAIQQMGGQWLGGRQIRTNWATRKPPAPKSTYESNTKQLSYDEVVNQSSPSNCTVYCGGVTSGLTEQLMRQTFSPFGQIMEIRVFPDKGYSFVRFNSHESAAHAIVSVNGTTIEGHVVKCYWGKETLDMINPVQQQNQIGYPQPYGQWGQWYGNAQQIGQYMPNGWQVPAYGMYGQAWNQQGFNQTQSSAPWMGPNYGVQPPQGQNGSMLPNQPSGYRVAGYETQ
Turning to B1, the fold change of TIA1 pulled down with DIC1B, with Myc-ANXA7 against without is 4 fold.
